Test results: patent US20050163796A1
Read-outs that look alike come from different tables or passages of the source.

Assays:
[1] = target: HLA-B*0702 on HLA-B*0702 transfected TAP- T2 cells (human)
[2] = target: HLA-B*0702 on HLA-B*0702 transfected TAP- T2 cells (human); experiment: HLA-B*0702 stabilisation on T2-B*0702 cells, FACS with ME.1 mAb; concentration to reach 20% of maximal fluorescence relative to R10V; conditions: scale: ratio of concentrations, tested peptide / R10V reference
[3] = scale: ratio of concentrations, tested peptide / R10V reference

Row | Binder | RA (relative affinity) [2] | RA (relative affinity) [1, 3] | further results
1 | YPLASLRSLF (modifications not checked) [Y10LF] |  |  | RA (relative affinity) [1]: 3.25
2 | LPLPPLDRL (modifications not checked) [L9RL] | 6.13 |  | 
3 | LPPLDRLTL (modifications not checked) [L9TL] | 3.51 |  | 
4 | QPIQIAIAAL (modifications not checked) [Q10AL] | 6.5 |  | 
5 | AAISPVLRL (modifications not checked) [A9RL] |  | 15 | 
6 | SPVLRLRPPV (modifications not checked) [S10PV] |  | 0.85 | 
7 | QPPLYFVHQM (modifications not checked) [Q10QM] |  | 49 | 
8 | GPHMPVYPQT (modifications not checked) [G10QT] |  | 22 | 
9 | MPVYPQTPT (modifications not checked) [M9PT] |  | 0.94 | 
10 | QPRSDTHVF (modifications not checked) [Q9VF] |  | 1.56 | 
11 | APTKAKRRVV (modifications not checked) [A10VV] | 1.14 |  | 
12 | RPVVSTQLLL (modifications not checked) [R10LL] | 2.25 |  | 
13 | KPPLPSVTKL (modifications not checked) [K10KL] | 3.55 |  | 
14 | IPLGDARLVI (modifications not checked) [I10VI] | 2.33 |  | 
15 | HPRISSEVHI (modifications not checked) [H10HI] | 3.7 |  | 
16 | SPHPRISSEV (modifications not checked) [S10EV] | 1.11 |  | 
17 | TPKKIKPPL (modifications not checked) [T9PL] | 1.29 |  | 
18 | PPQGSQTHQV (modifications not checked) [P10QV] | 8.97 |  | 
